Key:
Test in all cases: IP/MS, LZTR1 R810W-FLAG, U87
[1] = biological target: T1, TRAPPC11 (human, UniProt Q7Z392 1-1133, limits assumed)
T1 sequence (looked up): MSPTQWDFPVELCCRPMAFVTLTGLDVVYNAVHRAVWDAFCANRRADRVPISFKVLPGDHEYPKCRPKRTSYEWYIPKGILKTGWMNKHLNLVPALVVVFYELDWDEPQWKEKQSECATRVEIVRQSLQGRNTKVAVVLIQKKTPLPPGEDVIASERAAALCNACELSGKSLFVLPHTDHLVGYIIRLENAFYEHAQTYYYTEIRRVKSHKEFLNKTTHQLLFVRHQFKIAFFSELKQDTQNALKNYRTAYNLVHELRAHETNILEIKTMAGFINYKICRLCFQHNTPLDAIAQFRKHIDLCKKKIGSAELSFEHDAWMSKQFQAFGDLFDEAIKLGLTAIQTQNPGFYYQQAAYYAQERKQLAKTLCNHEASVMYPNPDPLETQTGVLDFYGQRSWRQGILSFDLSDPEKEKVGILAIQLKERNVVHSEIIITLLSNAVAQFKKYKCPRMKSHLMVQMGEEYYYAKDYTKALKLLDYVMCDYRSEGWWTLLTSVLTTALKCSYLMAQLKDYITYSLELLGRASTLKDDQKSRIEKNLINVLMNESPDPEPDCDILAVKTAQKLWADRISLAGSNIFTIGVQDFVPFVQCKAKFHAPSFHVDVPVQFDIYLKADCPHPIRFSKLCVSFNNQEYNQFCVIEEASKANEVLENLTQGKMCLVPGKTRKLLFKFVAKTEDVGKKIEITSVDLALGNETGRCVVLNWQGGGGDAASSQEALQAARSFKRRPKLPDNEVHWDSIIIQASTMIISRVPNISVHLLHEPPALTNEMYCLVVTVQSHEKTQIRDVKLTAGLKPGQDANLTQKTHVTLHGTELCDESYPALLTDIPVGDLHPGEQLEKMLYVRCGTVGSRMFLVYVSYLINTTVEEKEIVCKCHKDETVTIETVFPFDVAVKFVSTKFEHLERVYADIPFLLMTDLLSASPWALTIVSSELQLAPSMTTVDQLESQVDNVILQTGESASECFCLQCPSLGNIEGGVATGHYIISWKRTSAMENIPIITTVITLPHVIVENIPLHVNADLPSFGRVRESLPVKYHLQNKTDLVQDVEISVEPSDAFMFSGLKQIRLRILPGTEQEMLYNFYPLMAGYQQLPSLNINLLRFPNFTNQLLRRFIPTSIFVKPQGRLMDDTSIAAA
Summary of the method: (§1)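 Gel slices were reduced with 5 mM DTT, alkylated with 11 mM IAA and digested overnight at 37° C. with trypsin. Peptides were analysed on an Orbitrap Fusion Tribrid by LC-MS/MS.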

[2] = biological target: ARHGEF28 (human, UniProt Q8N1W1 1-1705, limits assumed)
Summary of the method: as §1

[3] = biological target: T2, STK11IP (human, UniProt Q8N1F8 1-1088)
T2 sequence (looked up): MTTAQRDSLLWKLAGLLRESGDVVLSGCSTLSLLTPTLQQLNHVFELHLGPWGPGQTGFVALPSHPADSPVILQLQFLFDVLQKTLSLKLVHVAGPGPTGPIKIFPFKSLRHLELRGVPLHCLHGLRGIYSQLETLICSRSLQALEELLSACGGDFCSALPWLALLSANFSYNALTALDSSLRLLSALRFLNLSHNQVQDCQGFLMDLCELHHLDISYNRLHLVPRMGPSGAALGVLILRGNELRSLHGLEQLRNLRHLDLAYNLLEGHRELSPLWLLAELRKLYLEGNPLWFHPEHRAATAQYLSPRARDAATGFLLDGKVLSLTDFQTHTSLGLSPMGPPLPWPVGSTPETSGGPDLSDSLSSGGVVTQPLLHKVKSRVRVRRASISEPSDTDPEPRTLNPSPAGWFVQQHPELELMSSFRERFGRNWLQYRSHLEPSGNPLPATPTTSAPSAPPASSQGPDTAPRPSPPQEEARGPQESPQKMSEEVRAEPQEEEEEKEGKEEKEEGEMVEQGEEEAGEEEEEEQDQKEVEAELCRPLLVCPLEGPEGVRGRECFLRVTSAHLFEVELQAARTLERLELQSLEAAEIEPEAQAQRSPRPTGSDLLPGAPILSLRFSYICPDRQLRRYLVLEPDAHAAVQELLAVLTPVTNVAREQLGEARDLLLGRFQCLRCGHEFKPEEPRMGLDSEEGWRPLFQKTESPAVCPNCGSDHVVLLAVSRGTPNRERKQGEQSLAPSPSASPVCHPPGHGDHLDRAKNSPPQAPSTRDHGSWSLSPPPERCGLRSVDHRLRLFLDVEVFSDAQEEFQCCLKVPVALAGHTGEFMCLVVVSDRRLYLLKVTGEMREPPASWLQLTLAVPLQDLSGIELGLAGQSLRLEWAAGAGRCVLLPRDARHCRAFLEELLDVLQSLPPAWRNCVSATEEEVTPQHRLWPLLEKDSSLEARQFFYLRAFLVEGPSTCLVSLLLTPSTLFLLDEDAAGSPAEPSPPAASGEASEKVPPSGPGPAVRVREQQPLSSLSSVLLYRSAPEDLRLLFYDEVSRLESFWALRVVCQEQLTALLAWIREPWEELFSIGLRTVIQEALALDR
Summary of the method: as §1

[4] = biological target: TRRAP (human, UniProt Q9Y4A5 2-3859, limits assumed)
Summary of the method: as §1

Measured: binding result

Sequence of ARHGEF28 (Q8N1W1 whole entry): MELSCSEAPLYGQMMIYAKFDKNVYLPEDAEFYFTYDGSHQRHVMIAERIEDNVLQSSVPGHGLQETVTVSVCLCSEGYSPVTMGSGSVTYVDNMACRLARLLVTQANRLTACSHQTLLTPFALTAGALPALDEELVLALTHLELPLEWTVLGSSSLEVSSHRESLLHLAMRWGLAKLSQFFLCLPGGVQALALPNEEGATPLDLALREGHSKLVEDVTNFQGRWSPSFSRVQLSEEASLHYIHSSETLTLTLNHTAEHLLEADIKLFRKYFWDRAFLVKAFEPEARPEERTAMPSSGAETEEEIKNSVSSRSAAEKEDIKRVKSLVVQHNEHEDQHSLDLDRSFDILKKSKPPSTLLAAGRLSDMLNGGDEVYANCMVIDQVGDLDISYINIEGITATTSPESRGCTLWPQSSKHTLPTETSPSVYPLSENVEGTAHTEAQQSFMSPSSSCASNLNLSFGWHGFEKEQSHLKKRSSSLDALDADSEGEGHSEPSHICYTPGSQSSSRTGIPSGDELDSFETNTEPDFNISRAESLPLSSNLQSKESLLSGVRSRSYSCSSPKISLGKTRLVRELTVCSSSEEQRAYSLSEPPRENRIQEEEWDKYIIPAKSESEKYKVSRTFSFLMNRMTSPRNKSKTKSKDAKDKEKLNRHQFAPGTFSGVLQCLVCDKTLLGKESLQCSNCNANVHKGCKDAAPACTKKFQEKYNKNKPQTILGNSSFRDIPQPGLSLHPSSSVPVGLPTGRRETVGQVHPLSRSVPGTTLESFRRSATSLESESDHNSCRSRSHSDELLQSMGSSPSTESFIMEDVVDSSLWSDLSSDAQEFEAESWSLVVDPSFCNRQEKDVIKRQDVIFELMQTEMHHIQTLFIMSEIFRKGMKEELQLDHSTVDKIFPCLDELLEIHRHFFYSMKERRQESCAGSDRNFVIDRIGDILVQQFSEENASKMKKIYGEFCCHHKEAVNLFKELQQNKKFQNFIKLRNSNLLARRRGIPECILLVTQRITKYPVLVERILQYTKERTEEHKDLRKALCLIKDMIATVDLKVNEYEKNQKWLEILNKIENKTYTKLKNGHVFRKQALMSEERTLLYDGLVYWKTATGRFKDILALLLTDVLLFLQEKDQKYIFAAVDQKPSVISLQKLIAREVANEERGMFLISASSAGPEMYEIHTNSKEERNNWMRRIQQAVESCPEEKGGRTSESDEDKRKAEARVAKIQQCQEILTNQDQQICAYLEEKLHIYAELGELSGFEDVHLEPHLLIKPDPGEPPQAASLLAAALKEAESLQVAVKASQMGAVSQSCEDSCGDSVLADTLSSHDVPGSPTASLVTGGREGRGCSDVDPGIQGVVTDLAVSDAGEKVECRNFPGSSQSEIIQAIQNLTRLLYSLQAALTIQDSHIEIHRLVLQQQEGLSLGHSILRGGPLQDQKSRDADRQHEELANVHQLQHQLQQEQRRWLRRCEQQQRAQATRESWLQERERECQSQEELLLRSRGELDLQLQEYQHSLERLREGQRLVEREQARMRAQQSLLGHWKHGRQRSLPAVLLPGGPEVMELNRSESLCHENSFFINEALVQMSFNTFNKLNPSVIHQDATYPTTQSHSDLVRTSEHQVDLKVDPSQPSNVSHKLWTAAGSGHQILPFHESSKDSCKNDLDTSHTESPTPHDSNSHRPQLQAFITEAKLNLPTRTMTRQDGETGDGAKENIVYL

B1: LZTR1 R810W-FLAG (other, human, UniProt Q8N653 1-840, looked up)
chain: MAGPGSTGGQIGAAALAGGARSKVAPSVDFDHSCSDSVEYLTLNFGPFETVHRWRRLPPCDEFVGARRSKHTVVAYKDAIYVFGGDNGKTMLNDLLRFDVKDCSWCRAFTTGTPPAPRYHHSAVVYGSSMFVFGGYTGDIYSNSNLKNKNDLFEYKFATGQWTEWKIEGRLPVARSAHGATVYSDKLWIFAGYDGNARLNDMWTIGLQDRELTCWEEVAQSGEIPPSCCNFPVAVCRDKMFVFSGQSGAKITNNLFQFEFKDKTWTRIPTEHLLRGSPPPPQRRYGHTMVAFDRHLYVFGGAADNTLPNELHCYDVDFQTWEVVQPSSDSEVGGAEVPERACASEEVPTLTYEERVGFKKSRDVFGLDFGTTSAKQPTQPASELPSGRLFHAAAVISDAMYIFGGTVDNNIRSGEMYRFQFSCYPKCTLHEDYGRLWESRQFCDVEFVLGEKEECVQGHVAIVTARSRWLRRKITQARERLAQKLEQEAAPVPREAPGVAAGGARPPLLHVAIREAEARPFEVLMQFLYTDKIKYPRKGHVEDVLLIMDVYKLALSFQLCRLEQLCRQYIEASVDLQNVLVVCESAARLQLSQLKEHCLNFVVKESHFNQVIMMKEFERLSSPLIVEIVRRKQQPPPRTPLDQPVDIGTSLIQDMKAYLEGAGAEFCDITLLLDGHPRPAHKAILAARSSYFEAMFRSFMPEDGQVNISIGEMVPSRQAFESMLRYIYYGEVNMPPEDSLYLFAAPYYYGFYNNRLQAYCKQNLEMNVTVQNVLQILEAADKTQALDMKRHCLHIIVHQFTKVSKLPTLWSLSQQLLLDIIDSLASHISDKQCAELGADI
notes: Stably expressed in U87 cells by lentivirus; also called LZTR1-FLAG-R810W; LZTR1 RW; not shown: FLAG tag
binds: all assays above
